Two molecules from patent US20070059309A1 (Genentech, published 2007) can be followed below.

Assay in all cases: cell-based or functional assay
The target in assay [1] is T1, recombinant human IFN-α5 (human, UniProt P01569 24-189, limits assumed).
The target in the next assay is recombinant human IFN-α4 (human, UniProt P05014 24-189).
In assay [2] the target is T1, recombinant human IFN-α5. The source holds these as a separate data set.
The next assay concerns the target recombinant human IFN-α1 (human).

T1 sequence (P01569 24-189 limits assumed): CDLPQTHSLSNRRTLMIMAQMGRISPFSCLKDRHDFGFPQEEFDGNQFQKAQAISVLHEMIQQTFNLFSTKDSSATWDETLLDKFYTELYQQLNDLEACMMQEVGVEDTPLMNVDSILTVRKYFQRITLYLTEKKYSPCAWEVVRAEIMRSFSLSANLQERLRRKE
Chain of recombinant human IFN-α4 (P05014 24-189 limits assumed): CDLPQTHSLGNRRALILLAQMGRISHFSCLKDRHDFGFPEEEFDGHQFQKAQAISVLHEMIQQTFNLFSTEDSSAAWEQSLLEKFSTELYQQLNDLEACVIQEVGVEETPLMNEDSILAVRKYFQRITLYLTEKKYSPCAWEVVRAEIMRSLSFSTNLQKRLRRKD
Chain of recombinant human IFN-α1 (human) (P01562 24-189): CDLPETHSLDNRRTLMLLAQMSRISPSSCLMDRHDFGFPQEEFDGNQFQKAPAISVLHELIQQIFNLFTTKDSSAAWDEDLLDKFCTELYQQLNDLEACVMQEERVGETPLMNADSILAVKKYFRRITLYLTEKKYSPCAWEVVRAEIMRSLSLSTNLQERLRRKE

B1: murine anti-human IFN-α monoclonal antibody 9F3 (antibody, IgG2, V domains shown)
VL: DIVLTQSPASLAVSLGQRATISCRASQSVSTSSYSYMHWYQQKPGQPPKVLISYASNLESGVPARFSGSGSGTDFTLNIHPVEEGDTATYFCQHSWGIPRTFGAGTKLELRR
V domain: EVQLQQSGPELVKPGASVKISCKTSGYTFTEYIIHWVKQGHGRSLEWIGSINPDYDITNYNQRFKGKATLTLDKSSRTAYLELRSLTSEDSAVYYCASWISDFFDYWGQGTTLMVSA
Take B1: the “EC50 (read off the curve); neutralization of anti-viral activity, EMC virus / A549 cells [left panel]” value with recombinant human IFN-α5 [1] was around 0.2 µg/mL. The “EC50 (read off the curve); neutralization of anti-viral activity, EMC virus / A549 cells” value with recombinant human IFN-α4 and with recombinant human IFN-α5 [2] was around 1 µg/mL in each case.

B2: chimeric protein CH8-2 (antibody, V domains shown)
VL: B1 VL
V domain: B1 V domain
For the molecule B2, the “EC50 (read off the curve); neutralization of anti-viral activity, EMC virus / A549 cells [right panel]” value with recombinant human IFN-α1 was around 2 µg/mL.
